In data set [1] the test system is HeLa Kyoto. Kind of data set: solubility in G1/S (NP-40 vs SDS abundance) (log2 ratio); higher = more soluble. The settings on record: cell cycle stage: G1/S.
The test system of data set [2] is HeLa Kyoto. Kind of data set: thermal stability score vs G1/S (z-score of summed log2 fold changes over temperatures); higher = more thermally stable than in G1/S.
For data set [3], the system named is HeLa Kyoto. The data set can be described thus: melting temperature (median over replicates), in situ; higher = more thermally stable.
Data set [4] relates to HeLa Kyoto. Kind of data set: solubility change mitosis vs G1/S (difference of NP-40 vs SDS log2 ratios) (log2 ratio difference); higher = more soluble in mitosis.
The mark [5] stands for this setting: cell cycle stage: early G1 (4.5 h after nocodazole release).
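Wherever melting temperature (median over replicates), in situ is given: HeLa Kyoto cells synchronized by double thymidine or nocodazole block, proteins quantified by TMT10plex mass spectrometry, three independent biological replicates.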
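Wherever solubility change mitosis vs G1/S (difference of NP-40 vs SDS log2 ratios) is given: synchronized HeLa Kyoto cells (double thymidine block for G1/S, nocodazole release for mitosis), protein amounts in NP-40 versus SDS lysates quantified by mass spectrometry, three biological replicates.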
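Wherever solubility in G1/S (NP-40 vs SDS abundance) is given: HeLa Kyoto cells arrested at G1/S by double thymidine block, proteins quantified by TMT10plex mass spectrometry in mild NP-40 versus SDS extracts, three biological replicates.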
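Wherever thermal stability score vs G1/S (z-score of summed log2 fold changes over temperatures) is given: synchronized HeLa Kyoto cells, proteins quantified by TMT10plex mass spectrometry, three biological replicates, mitosis taken 0.5 h after nocodazole release, G1/S directly after double thymidine block.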

For the sequence “MGRSRSRSSSRSKHTKSSKHNKKRSRSRSRSRDKERVRKRSKSRESKRNRRRESRSRSRSTNTAVSRRERDRERASSPPDRIDIFGRTVSKRSSLDEKQKREEEEKKAEFERQRKIRQQEIEEKLIEEETARRVEELVAKRVEEELEKRKDEIEREVLRRVEEAKRIMEKQLLEELERQRQAELAAQKAREEEERAKREELERILEENNRKIAEAQAKLAEEQLRIVEEQRKIHEERMKLEQERQRQQKEEQKIILGKGKSRPKLSFSLKTQD [ARGLU1]”, the “solubility in G1/S (log2)” value in the data set with HeLa Kyoto [1] is -1.03. In addition, the thermal stability score in the data set with HeLa Kyoto [2] (setting [5]) is -5.79; with HeLa Kyoto [2] (cell cycle stage: mitosis) it was -4.86. In addition, the melting temperature in the data set with HeLa Kyoto [3] (cell cycle stage: G1/S) was found to be 51 °C; in the data set on HeLa Kyoto [3] (cell cycle stage: mitosis), 50.4 °C. For the same sequence, the “solubility change mitosis (log2)” value with HeLa Kyoto [4] was 0.866.
Turning to “MGRVVAELVSSLLGLWLLLCSCGCPEGAELRAPPDKIAIIGAGIGGTSAAYYLRQKFGKDVKIDLFEREEVGGRLATMMVQGQEYEAGGSVIHPLNLHMKRFVKDLGLSAVQASGGLLGIYNGETLVFEESNWFIINVIKLVWRYGFQSLRMHMWVEDVLDKFMRIYRYQSHDYAFSSVEKLLHALGGDDFLGMLNRTLLETLQKAGFSEKFLNEMIAPVMRVNYGQSTDINAFVGAVSLSCSDSGLWAVEGGNKLVCSGLLQASKSNLISGSVMYIEEKTKTKYTGNPTKMYEVVYQIGTETRSDFYDIVLVATPLNRKMSNITFLNFDPPIEEFHQYYQHIVTTLVKGELNTSIFSSRPIDKFGLNTVLTTDNSDLFINSIGIVPSVREKEDPEPSTDGTYVWKIFSQETLTKAQILKLFLSYDYAVKKPWLAYPHYKPPEKCPSIILHDRLYYLNGIECAASAMEMSAIAAHNAALLAYHRWNGHTDMIDQDGLYEKLKTEL [PCYOX1]”, the “solubility in G1/S (log2)” value with HeLa Kyoto [1] amounted to 0.102. The values for the thermal stability score with HeLa Kyoto [2] (setting [5]) and with HeLa Kyoto [2] (cell cycle stage: mitosis) were 1.46 and 0.959, respectively. Also, the melting temperature was 56.6 °C in the data set with HeLa Kyoto [3] (cell cycle stage: G1/S) and 57.1 °C with HeLa Kyoto [3] (cell cycle stage: mitosis). In addition, the “solubility change mitosis (log2)” value in the data set on HeLa Kyoto [4] was -0.225.
For the sequence “MGSGARFPSGTLRVRWLLLLGLVGPVLGAARPGFQQTSHLSSYEIITPWRLTRERREAPRPYSKQVSYVIQAEGKEHIIHLERNKDLLPEDFVVYTYNKEGTLITDHPNIQNHCHYRGYVEGVHNSSIALSDCFGLRGLLHLENASYGIEPLQNSSHFEHIIYRMDDVYKEPLKCGVSNKDIEKETAKDEEEEPPSMTQLLRRRRAVLPQTRYVELFIVVDKERYDMMGRNQTAVREEMILLANYLDSMYIMLNIRIVLVGLEIWTNGNLINIVGGAGDVLGNFVQWREKFLITRRRHDSAQLVLKKGFGGTAGMAFVGTVCSRSHAGGINVFGQITVETFASIVAHELGHNLGMNHDDGRDCSCGAKSCIMNSGASGSRNFSSCSAEDFEKLTLNKGGNCLLNIPKPDEAYSAPSCGNKLVDAGEECDCGTPKECELDPCCEGSTCKLKSFAECAYGDCCKDCRFLPGGTLCRGKTSECDVPEYCNGSSQFCQPDVFIQNGYPCQNNKAYCYNGMCQYYDAQCQVIFGSKAKAAPKDCFIEVNSKGDRFGNCGFSGNEYKKCATGNALCGKLQCENVQEIPVFGIVPAIIQTPSRGTKCWGVDFQLGSDVPDPGMVNEGTKCGAGKICRNFQCVDASVLNYDCDVQKKCHGHGVCNSNKNCHCENGWAPPNCETKGYGGSVDSGPTYNEMNTALRDGLLVFFFLIVPLIVCAIFIFIKRDQLWRSYFRKKRSQTYESDGKNQANPSRQPGSVPRHVSPVTPPREVPIYANRFAVPTYAAKQPQQFPSRPPPPQPKVSSQGNLIPARPAPAPPLYSSLT [ADAM9]”, the “solubility in G1/S (log2)” value in the data set on HeLa Kyoto [1] was -0.486. The values for the thermal stability score with HeLa Kyoto [2] (setting [5]) and in the data set with HeLa Kyoto [2] (cell cycle stage: mitosis) were -2.54 and -2.91, respectively. The melting temperature in the data set on HeLa Kyoto [3] (cell cycle stage: G1/S) came out at 57.3 °C; in the data set on HeLa Kyoto [3] (cell cycle stage: mitosis), 56.8 °C. Besides, in the data set with HeLa Kyoto [4], the “solubility change mitosis (log2)” value was -0.00657.
With “MGSRVSREDFEWVYTDQPHADRRREILAKYPEIKSLMKPDPNLIWIIIMMVLTQLGAFYIVKDLDWKWVIFGAYAFGSCINHSMTLAIHEIAHNAAFGNCKAMWNRWFGMFANLPIGIPYSISFKRYHMDHHRYLGADGVDVDIPTDFEGWFFCTAFRKFIWVILQPLFYAFRPLFINPKPITYLEVINTVAQVTFDILIYYFLGIKSLVYMLAASLLGLGLHPISGHFIAEHYMFLKGHETYSYYGPLNLLTFNVGYHNEHHDFPNIPGKSLPLVRKIAAEYYDNLPHYNSWIKVLYDFVMDDTISPYSRMKRHQKGEMVLE [DEGS1]”, the “solubility in G1/S (log2)” value in the data set on HeLa Kyoto [1] was -0.186. For the same sequence, the thermal stability score with HeLa Kyoto [2] (setting [5]) was -0.898; in the data set on HeLa Kyoto [2] (cell cycle stage: mitosis), -1.88. Further, the melting temperature with HeLa Kyoto [3] (cell cycle stage: G1/S) was found to be 55 °C; with HeLa Kyoto [3] (cell cycle stage: mitosis), 55.2 °C. In the data set with HeLa Kyoto [4], the “solubility change mitosis (log2)” value is -0.264.
For “MGTPGEGLGRCSHALIRGVPESLASGEGAGAGLPALDLAKAQREHGVLGGKLRQRLGLQLLELPPEESLPLGPLLGDTAVIQGDTALITRPWSPARRPEVDGVRKALQDLGLRIVEIGDENATLDGTDVLFTGREFFVGLSKWTNHRGAEIVADTFRDFAVSTVPVSGPSHLRGLCGMGGPRTVVAGSSDAAQKAVRAMAVLTDHPYASLTLPDDAAADCLFLRPGLPGVPPFLLHRGGGDLPNSQEALQKLSDVTLVPVSCSELEKAGAGLSSLCLVLSTRPHS [DDAH2]”, in the data set on HeLa Kyoto [1], the “solubility in G1/S (log2)” value was 0.479. Also, the thermal stability score with HeLa Kyoto [2] (setting [5]) turned out to be 0.156; with HeLa Kyoto [2] (cell cycle stage: mitosis), 0.00237. The melting temperature was found to be 55.2 °C in the data set with HeLa Kyoto [3] (cell cycle stage: G1/S) and 54 °C in the data set with HeLa Kyoto [3] (cell cycle stage: mitosis). Further, the “solubility change mitosis (log2)” value in the data set with HeLa Kyoto [4] was 0.0772.

The record behind these values is the supplement of paper PMC5998384.
